# Earlier results, collected in US20210000129A1, “COMPOSITION FOR LOWERING BLOOD PRESSURE AND/OR REDUCING NEUTRAL FATS” (MORINAGA MILK INDUSTRY CO., LTD., priority 2018, published 2021).
# Tests used:
# dipeptidyl-peptidase IV = dipeptidyl-peptidase IV (Homo sapiens, UniProt P27487); conditions: known from References 1 to 3
# [1] = biological target: angiotensin converting enzyme (Homo sapiens, UniProt P12821); conditions: known from References 1 to 3
# Chain of angiotensin converting enzyme (P12821 30-1306, species assumed): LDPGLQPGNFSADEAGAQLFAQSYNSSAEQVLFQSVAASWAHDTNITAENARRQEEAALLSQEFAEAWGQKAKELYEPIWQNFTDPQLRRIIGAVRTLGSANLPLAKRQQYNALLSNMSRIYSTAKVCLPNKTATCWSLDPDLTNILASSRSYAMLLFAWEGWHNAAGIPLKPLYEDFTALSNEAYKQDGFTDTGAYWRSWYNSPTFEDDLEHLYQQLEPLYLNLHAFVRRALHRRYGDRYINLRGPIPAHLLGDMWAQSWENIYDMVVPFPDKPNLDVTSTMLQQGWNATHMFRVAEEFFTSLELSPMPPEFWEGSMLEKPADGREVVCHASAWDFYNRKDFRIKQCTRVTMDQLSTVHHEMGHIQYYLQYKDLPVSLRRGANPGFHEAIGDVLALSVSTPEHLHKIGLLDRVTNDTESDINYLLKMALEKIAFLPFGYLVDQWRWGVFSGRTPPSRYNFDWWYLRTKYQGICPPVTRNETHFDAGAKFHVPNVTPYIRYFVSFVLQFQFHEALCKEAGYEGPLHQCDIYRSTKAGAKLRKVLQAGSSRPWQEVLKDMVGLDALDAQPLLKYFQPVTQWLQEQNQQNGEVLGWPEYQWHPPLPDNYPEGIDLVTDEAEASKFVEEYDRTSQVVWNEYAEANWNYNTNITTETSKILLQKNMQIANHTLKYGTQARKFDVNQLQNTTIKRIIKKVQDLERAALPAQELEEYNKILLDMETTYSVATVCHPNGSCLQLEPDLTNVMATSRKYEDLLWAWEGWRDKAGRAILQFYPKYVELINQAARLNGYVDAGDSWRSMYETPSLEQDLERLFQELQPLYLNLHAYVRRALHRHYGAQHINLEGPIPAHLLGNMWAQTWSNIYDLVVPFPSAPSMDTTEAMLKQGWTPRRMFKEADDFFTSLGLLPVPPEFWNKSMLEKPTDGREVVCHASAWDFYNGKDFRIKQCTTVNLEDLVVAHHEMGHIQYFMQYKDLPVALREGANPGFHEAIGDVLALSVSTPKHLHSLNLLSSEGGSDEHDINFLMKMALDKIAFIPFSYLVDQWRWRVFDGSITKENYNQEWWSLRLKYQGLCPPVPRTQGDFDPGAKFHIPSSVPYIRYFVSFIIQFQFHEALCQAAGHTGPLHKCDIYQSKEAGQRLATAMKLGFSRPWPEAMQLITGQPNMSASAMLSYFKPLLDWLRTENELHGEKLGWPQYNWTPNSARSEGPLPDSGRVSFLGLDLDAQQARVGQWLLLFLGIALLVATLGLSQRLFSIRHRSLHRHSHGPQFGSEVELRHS
# Chain of dipeptidyl-peptidase IV (P27487 whole entry, species assumed): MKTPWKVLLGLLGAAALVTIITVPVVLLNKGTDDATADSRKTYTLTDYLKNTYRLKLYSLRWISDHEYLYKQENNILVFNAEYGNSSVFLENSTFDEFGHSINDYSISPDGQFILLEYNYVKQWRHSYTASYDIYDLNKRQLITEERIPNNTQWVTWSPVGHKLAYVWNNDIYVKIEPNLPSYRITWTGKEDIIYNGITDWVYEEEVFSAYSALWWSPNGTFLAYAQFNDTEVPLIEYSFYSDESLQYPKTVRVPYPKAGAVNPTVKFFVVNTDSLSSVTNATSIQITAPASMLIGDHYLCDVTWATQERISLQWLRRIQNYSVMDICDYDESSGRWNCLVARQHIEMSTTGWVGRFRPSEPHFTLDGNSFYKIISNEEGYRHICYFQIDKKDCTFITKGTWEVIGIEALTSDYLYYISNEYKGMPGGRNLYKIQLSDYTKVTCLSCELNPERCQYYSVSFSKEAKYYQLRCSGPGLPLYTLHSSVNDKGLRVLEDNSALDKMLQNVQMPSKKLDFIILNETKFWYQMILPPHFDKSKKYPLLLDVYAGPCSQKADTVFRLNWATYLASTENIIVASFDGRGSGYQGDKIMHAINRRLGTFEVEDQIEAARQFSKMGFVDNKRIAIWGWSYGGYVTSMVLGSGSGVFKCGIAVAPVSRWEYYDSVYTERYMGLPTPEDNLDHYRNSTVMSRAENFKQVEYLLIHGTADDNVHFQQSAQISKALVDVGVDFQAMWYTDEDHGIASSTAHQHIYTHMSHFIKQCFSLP
substance,measurement,setting,value
Met-Lys-Pro (MKP) [tripeptide MKP],dipeptidyl-peptidase IV-inhibiting action,dipeptidyl-peptidase IV,dipeptidyl-peptidase IV-inhibiting action
same,angiotensin converting enzyme-inhibiting action,[1],angiotensin converting enzyme-inhibiting action
